# Results taken from US20030124664.
# B1: native-sequence aminopeptidase b2324 (product of the E. coli chromosomal yfcK gene) (protein)
# chain: MRSLTHIAKIEPPPVRRVTYVKHYSIQPANLEFNAEGTPVSRDFDDVYFSNDNGLEETRYVFLGGNQLEVRFPEHPHPLFVVAESGFGTGLNFLTLWQAFDQFREAHPQAQLQRLHFISFEKFPLTRADLALAHQHWPELAPWAEQLQAQWPMPLPGCHRLLLDEGRVTLDLWFGDINELTSQLDDSLNQKVDAWFLDGFAPAKNPDMWTQNLFNAMARLARPGGTLATFTSAGFVRRGLQDAGFTMQKRKGFGRKREMLCGVMEQTLPLPCSAPWFNRTGSSKREAAIIGGGIASALLSLALLRRGWQVTLYCADEAPALGASGNRQGALYPLLSKHDEALNRFFSNAFTFARRFYDQLPVKFDHDWCGVTQLGWDEKSQHKIAQMLSMDLPAELAVAVEANAVEQITGVATNCSGITYPQGGWLCPAELTRNVLELAQQQGLQIYYQYQLQNLSRKDDCWLLNFAGDQQATHSVVVLANGHQISRFSQTSTLPVYSVAGQVSHIPTTPELAELKQVLCYDGYLTPQNPANQHHCIGASYHRGSEDTAYSEDDQQQNRQRLIDCFPQAQWAKEVDVSDKEARCGVRCATRDHLPMVGNVPDYEATLVEYASLAEQKDEAVSAPVFDDLFMFAALGSRGLCSAPLCAEILAAQMSDEPIPMDASTLAALNPNRLWVRKLLKGKAVKAG
# Biological target: human growth hormone (hGH) with the N-terminal phenylalanine, expressed and secreted from plasmid phGH4R, P01241
# Sequence (P01241 27-217): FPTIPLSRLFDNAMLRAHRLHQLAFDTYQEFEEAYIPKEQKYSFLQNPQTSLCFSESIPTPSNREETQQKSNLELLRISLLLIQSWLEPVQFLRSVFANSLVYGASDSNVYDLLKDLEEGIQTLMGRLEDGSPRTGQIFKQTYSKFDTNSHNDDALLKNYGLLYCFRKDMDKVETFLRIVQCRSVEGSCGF
protein,measurement,value
B1,"N-terminal cleavage of hGH in crude lysate (LC-MS), yfcK deletion strain against control",virtually no phenylalanine-cleaved impurities after 15 hours of incubation at 37 °C
